# Columns and labels:
# [1] = tested on: L. lactis IL1403; test: Antimicrobial activity (halo of inhibition on petri dishes) of cell-free produced, intein-circularized bacteriocins against indicator L. lactis IL1403; type: cell-based, Lactococcus lactis; design: key: +: Bacteriocins showing a halo of inhibition against at least one of the indicators were considered as positive; conditions: bacteriocins circularized with inteins; cell free production and overnight incubation at room temperature
# Description: (§1) Recombinant vectors were stabilized and amplified in E. coli DH5a standard strain and used as templates for cell-free protein synthesis using PURExpress® in vitro Protein Synthesis Kit (New England Biolabs). All bacteriocins synthesized were tested on petri dishes for antimicrobial activity against an indicator strain. Bacteriocins showing a halo of inhibition against at least one of the indicators were considered as positive.
# (§2) Following the same scheme as for GarML, different plasmids containing genes coding for recombinant proteins containing Npu IC and IN fused to the mature amino acid sequence of different known and hypothetical circular bacteriocins were synthesized. The circularization point for all of them was changed with respect to the native peptides so they all would start with a Ser in position 1 (Table 2.1). The Ssra tag was also added to the C-terminus. […] Plasmids synthesized were used as templates for cell free protein production. Antimicrobial activity of the peptides obtained after cell free production and overnight incubation at room temperature were tested against indicator L. lactis IL1403.
# [2] = tested on: P. pentosaceus HELA; test: Antimicrobial activity (halo of inhibition on petri dishes) of cell-free produced, intein-circularized bacteriocins against indicator P. pentosaceus HELA; type: cell-based; design: key: +: Bacteriocins showing a halo of inhibition against at least one of the indicators were considered as positive; conditions: bacteriocins circularized with inteins; cell free production
# Description: as §1, §2
# [3] = tested on: L. inocua; test: Antimicrobial activity (halo of inhibition on petri dishes) of cell-free produced, intein-circularized bacteriocins against indicator L. inocua; type: cell-based; design: key: +: Bacteriocins showing a halo of inhibition against at least one of the indicators were considered as positive; conditions: bacteriocins circularized with inteins; cell free production
# Description: as §1, §2
# [4] = tested on: L. lactis; test: Controlling growth of contaminating L. lactis in a culture medium with a circular bacteriocin (Examples 5 and 6); type: cell-based
# Source text: A polypeptide containing an amino acid sequence of a circular bacteriocin, for example Enterocin AS-48, flanked by a split intein is produced. The split intein is a conditionally active, pH-sensitive split intein, and is configured to circularize the bacteriocin when the pH is below 6.0. The polypeptide is introduced into a culture medium growing a microbial organism of interest, at pH 7.0. […] When a contaminating microbial species, L. lactis, is detected in the culture medium, the pH of the medium is reduced to below 6.0, which activates the split intein and causes the bacteriocin to circularize. Subsequently, the growth of the contaminating L. lactis in the culture medium is inhibited.
# A microbial cell is genetically engineered with an expression vector encoding a circular bacteriocin, for example Leucocyclicin Q, flanked by a split intein. The genetically engineered microbial cell is introduced into a culture medium growing a microbial organism of interest. The microbial cell produces the bacteriocin in circularized form, and secretes it into the culture medium. Growth of a contaminating microbial species, L. lactis, is inhibited by the circular bacteriocin.
Molecule,"Antimicrobial activity, Indicator L. lactis IL1403 [1]",also measured
Gassericin A (SGASLGTAFAAILGVTLPAWALAAAGALGATAAIYWIADQFGIHLATGTARKLLDAMA; circularized via Npu split intein; Strain LA39; Gassericin A (GasA); listed as Lactobacillus gasseri) [circular bacteriocin of Lactobacillus gasseri LA39],+,"Antimicrobial activity, Indicator P. pentosaceus HELA [2]: +; Antimicrobial activity, Indicator L. inocua [3]: +"
Carnocyclin A (SLINAGLTVGSIISILGGVTVGLSGVFTAVKAAIAKQGIKKAIQLLVAYGIAQGTAEKVV; circularized via Npu split intein; Carnocyclin A; Strain UAL307; listed as Carnobacterium maltaromaticum) [circular bacteriocin of Carnobacterium maltaromaticum UAL307],+,–
Bacteriocin NCTC 12958: putative circular bacteriocin of Streptococcus thermophilus NCTC 12958; SEQ ID NO: 854 circularized with Npu split intein (SAGGSIVDAFAIIAGITLPAWVAPVLAGFGVVSAIYWICGKFGIRLAPGWYQDIVDFV; circularized via Npu split intein; Bacteriocin NCTC 12958; Strain NCTC 12958; listed as Streptococcus thermophilus),+,–
Paracyclicin P (SAGGSLAGAFSVVAGVTLPAWIVPIATAFGAVSAIYFIANKLGIHLAPGWYQDMVNYV; circularized via Npu split intein; Paracyclicin P (ParP); subsp. Paracasei JCM 8130/ DSM 5622; listed as Lactobacillus paracesei) [circular bacteriocin of Lactobacillus paracasei JCM 8130/DSM 5622],+,–
Plantaricyclin A (SLTQKALDLLSAGSSLGTVAAAVLGVTLPAWAVAAAGALGGTAAIVWIAKQFGVHLTT; circularized via Npu split intein; Plantaricyclin A (PlcA); Strain NI326; listed as Lactobacillus plantarum) [circular bacteriocin of Lactobacillus plantarum NI326],+,–
Garvicin ML (SGAFTAAGGIMALIKKYAQKKLWKQLIAALVATGMAAGVAKTIVNAVSAGMDIATALSLF; circularized via Npu split intein; Garvicin ML (GarML); Strain DCC43; listed as Lactococcus garvieae) [circular bacteriocin of Lactococcus garvieae DCC43],+,–
"Enterocin AS-48 (protein, listed as Enterococcus faecalis, circularized via Npu split intein; Enterocin AS-48 (EntAS48); Strain 48, circular bacteriocin of Enterococcus faecalis S-48) SIKAYLKKEIKKKGKRAVIAWMAKEFGIPAAVAGTVLNVVEAGGWVTTIVSILTAVGSGGLSLLAAAGRE",+,"antimicrobial activity of non-circularized bacteriocin in culture medium ([4]; Example 5, pH-sensitive split intein, pH 7.0): does not exhibit antimicrobial activity; growth of contaminating L. lactis in culture medium ([4]; Example 5, pH-sensitive split intein, pH reduced to below 6.0): inhibited"
"Leucocyclicin Q (protein, circularized via Npu split intein; Strain TK41401; Leucocyclicin Q; Leuconostoc mesenteroides, circular bacteriocin of Leuconostoc mesenteroides TK41401) SKSLANTILGAIAVGNLASWLLALVPGPGWATKAALATAETIVKHEGKAAAIAWLVNQLGI",+,"growth of contaminating L. lactis in culture medium ([4]; Example 6, bacteriocin secreted by genetically engineered microbial cell): inhibited"
"Bacteriocin BCW 2997: putative circular bacteriocin of Listeria monocytogenes BCW 2997; SEQ ID NO: 818 circularized with Npu split intein (protein, circularized via Npu split intein; Strain BCW 2997; Bacteriocin BCW 2997; Listeria monocytogenes) SIKVYLKKQIKKKGRKAVIAWLAKEFGIPGGVAATVLNIVEAGGWATTILSILTAVGSGGLSLIAAAGKE",+,–
"Circularin A (protein, listed as Clostridium beijerinckii, circularized via Npu split intein; Circularin A (CirA); ATCC 25752, circular bacteriocin of Clostridium beijerinckii ATCC 25752) SIASGGAGTLMTIGWATFKATVQKLAKQSMARAIAYVAGALGVQTAAATTIVNVILNAGTLVTVLGIIA",+,–
"Bacteriocin YS111: putative circular bacteriocin of Streptococcus suis YS111; SEQ ID NO: 828 circularized with Npu split intein (protein, listed as Streptococcus suis, circularized via Npu split intein; Strain YS111; Bacteriocin YS111) STVVNVILGAGTAVTILGIISSIASGGATTLLTVGWAGFKATVQRLAKQSMARAIAYVAAALGVPSAVA",+,–
"Enterocin NKR-5-3B (protein, listed as Enterococcus faecium, circularized via Npu split intein; Strain NKR-5-3; Enterocin NKR-5-3B, circular bacteriocin of Enterococcus faecium NKR-5-3) SSYAAKKVIDIINTGSAVATIIALVTAVVGGGLITAGIVATAKSLIKKYGAKYAAAWLTANLGI",+,"Antimicrobial activity, Indicator L. inocua [3]: +"
"DSM 15102: putative circular bacteriocin of Garciella nitratireducens DSM 15102; SEQ ID NO: 832 circularized with Npu split intein (protein, listed as Garciella nitratireducens, circularized via Npu split intein; Bacteriocin DSM 15102; Strain DSM 15102) SMLGISTVAAKKVIDIIDTASTVATIISLIGVIVGVGGITAGLVTTAKAMIKKYGKKYATMWLA",+,–
"Uberolysin A (protein, listed as Streptococcus uberis, circularized via Npu split intein; Uberolysin A (UberA); Strain 42, circular bacteriocin of Streptococcus uberis 42) SGTAKKVVDAIDKGAAAFVIISIISTVISAGALGAVSASADFIILTVKNYISRNLKAQAVIWLAGYTGIA",–,"Antimicrobial activity, Indicator L. inocua [3]: +"
"Amylocyclicin (protein, listed as Bacillus amyloliquefaciens, circularized via Npu split intein; Strain FZB42; Amylocyclicin (Alc), circular bacteriocin of Bacillus amyloliquefaciens FZB42) STAAAKKAIDIIDAASTIASIISLIGIVTGAGAISYAIVATAKTMIKKYGKKYAAAWLASTLGI",+,–
"Bacteriocin 3688STDY6124959: putative circular bacteriocin of Staphylococcus aureus 3688STDY6124959; SEQ ID NO: 814 circularized with Npu split intein (protein, listed as Staphylococcus aureus, circularized via Npu split intein; Bacteriocin 3688STDY6124959; Strain 3688STDY6124959) STLGISSYAAKKAIDIIAAAGDVAAIVGLIGAVTGAGAIGAGILFTAKKLIKSYGKKYAAAWLT",+,–

# — patent publication US20250346639A1, “BACTERIOCIN POLYPEPTIDES, NUCLEIC ACIDS ENCODING SAME, AND METHODS OF USE THEREOF” (Syngulon SA, priority 2022, published 2025)
